Measured values: US20240409645A1 (DUALYX, published 2024)

T1: human IL-2Rβ (human, UniProt P14784 27-240, limits assumed)
T1 construct: recombinant protein, coated or immobilised; also called hu IL-2R; IL-2R beta
T1 sequence: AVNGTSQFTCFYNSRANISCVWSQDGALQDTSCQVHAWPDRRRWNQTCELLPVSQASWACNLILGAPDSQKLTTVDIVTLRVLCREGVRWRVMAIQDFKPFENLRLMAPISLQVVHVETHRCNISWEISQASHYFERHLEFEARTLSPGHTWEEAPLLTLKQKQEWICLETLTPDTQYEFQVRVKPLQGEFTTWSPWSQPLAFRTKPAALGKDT


What was measured:
human IL-2Rβ [1] = molecular target: T1, human IL-2Rβ; test: SPR, P.E. off-rate
Description: SPR was performed to determine dissociation rates using Biacore 3000 instrument (GE Healthcare). Briefly, human and mouse IL-2R proteins were immobilized on carboxylmethyl dextran sensor chip (CM5) at approximately 2500 RUs using amine coupling in acetate buffer (GE Healthcare). The VHH-containing P.E. were loaded with a flow rate of 30 uL/min and the off-rates were measured over a 120s period.

human IL-2Rβ [2] = molecular target: T1, human IL-2Rβ; test: P.E. ELISA, coated protein
Description: In a binding ELISA, human or mouse IL-2Rα, IL-2Rβ and IL-2Rγ proteins were coated directly on maxisorp microtiter plates overnight at 4° C. Free binding sites were blocked using 4% Marvel in PBS for 1 hour. Next, 1:5 dilution of P.E. in 1% Marvel/PBS were added to wells and incubated for 1 hour. […] Binding specificity was determined based on O.D. at 450 nm values compared to negative controls.

Row | Binder | koff (human IL-2Rβ [1]) [s⁻¹] | P.E. binding ELISA OD (human IL-2Rβ [2]) [OD450 nm]
1 | FJ1427_P035MP02E05 (VHH, soluble VHH in periplasmic extract; also called clone nr) VHH: EVQLVESGGGLVQIGGSLRLSCAASGRTFSSITMAYFRQVPGKEHEWVAGINFSGTRTFYADSVKGRFLISRDDAKSTMYLQMNSLKPEDTAVYYCAASPRGFYGPGNALYDYWGQGTQVTVSS | 0.00031 | 0.856
2 | FJ1427 P035MP02H05 (VHH, soluble VHH in periplasmic extract; also called clone nr) VHH: EVQLVESGGGSVQTGGSLRLSCVVSGSHFISDVMGWYRQVPGKQRELVADMADGGSAKYGDSVKGRFTILRDSVKNTVTLQMSSLNPEDTGVYYCKAGLWITGRHSDYWGQGTQVTVTS | 0.000268 | 0.192
3 | FJ1427_P035MP02D06 (VHH, soluble VHH in periplasmic extract; also called clone nr; 140) VHH: EVQLVESGGGLVQTGGSLRLSCAASGSQFINDVMGWYRQVPGKQRELVADMDDTGSTKYADSVKGRFTILRDSVKNTAYLQMSNLKPEDTGVYYCKAGLWIKGRHSDYWGQGTQVTVSS | 0.000374 | 0.298
4 | FJ1427_P035MP02B03 (VHH, soluble VHH in periplasmic extract; also called clone nr) VHH: QVQLVESGGGLVQTGGSLRLSCAASGSRFVSDFMGWYRQVPGKQRELVADMADGGSARYGDSVKGRFTILRDSGNSTAYLQMSSLKPEDTGVYYCKAGLWIAGRHFDYWGQGTQVTVSS | 0.000215 | 0.383
5 | FJ1427_P035MP02C02 (VHH, soluble VHH in periplasmic extract; also called clone nr) VHH: QVQLVESGGGLVQPGGSLRLSCAASGSRFVSDFMGWYRQVPGKQRELVADMADGGSARYGDSVKGRFTILRDNMNSTAFLQMSSLKPEDTGVYYCKAGLWIAGRHFDYWGQGTQVTVSS | 0.00057 | 0.401
6 | FJ1427_P035MP02F06 (VHH, soluble VHH in periplasmic extract; also called clone nr) VHH: EVQLVESGGGLVQTGGSLRLSCAASGSRFISDFMGWYRQVPGKQRELVADMADGGSARYGDSVKGRFTILRESGNATAYLQMSSLKPEDTGVYYCKAGLWIAGRHFDYWGQGTQVTVSS | 0.000203 | 0.214
7 | FJ1427 P035MP02A07 (VHH, soluble VHH in periplasmic extract; also called clone nr) VHH: QVQLVESGGGLVQAGGSLRLSCAVSGDVFVRYTMAWFRQAPGKEREFVATVTDSGRTTEYVDSVKGRFTVSRDNAKNTVYLQMNNLKPEDTAVYYCAANTDYFRIRSLDANTWGQGTQVTVSS | 0.00211 | 0.791
8 | FJ1427 P035MP02D08 (VHH, soluble VHH in periplasmic extract; also called clone nr) VHH: EVQLVESGGGLVQAGGSLRLSCVVSGDVFVRYTMAWFRQAPGKEREFVTSITDSGRTTEYVDSVKGRFTVSRDNAKNTVYLQMNNLKPEDTAVYYCAANTDYFRIRSLDANTWGQGTQVTVSS | 0.00236 | 0.905
9 | FJ1427 P035MP02D09 (VHH, soluble VHH in periplasmic extract; also called clone nr) VHH: QVQLVESGGGLVQAGGSLRLACALSGDVFVRYTMAWFRQAPGKEREFVASVTDSGRTTDYVASVQGRFTVSRDNNKNTVYLQMNSLKPEDTAVYYCAANTDYFQIRSLDRNTWGQGTQVTVSS | 0.000498 | 1.47
10 | FJ1427 P035MP02F02 (VHH, soluble VHH in periplasmic extract; also called clone nr; 110) VHH: EVQLVESGGGLVQAGGSLRLACALSGDVFVRYTMAWFRQAPGKEREFVASVTDSGRTTDYVASVQGRFTVSRDNNKNTVYLQMNSLKPEDTAVYYCAANTDYFQIRSLDRNTWGQGTQVTVSS | 0.000617 | 0.684
11 | FJ1427 P035MP02G08 (VHH, soluble VHH in periplasmic extract; also called clone nr) VHH: QVQLVESGGGLVQAGGSLRLSCTVSGDVFVRYTMAWFRQAPGKEREFVASVTDSGRTTEYVHSVRGRFTVSRDNAKNTVYLQMNNLKPEDTAVYYCAANTDYFRIRSLDANTWGQGTQVTVSS | 0.00178 | 0.441
12 | FJ1427 P035MP02H10 (VHH, soluble VHH in periplasmic extract; also called clone nr) VHH: EVQLVESGGGLVQAGGSLRLSCAASGDVFVRYTMAWFRQAPGKEREFVASVTDSGRTTDYVDSVKGRFTVSRDNAKNTVYLQMNNLKPEDTAVYYCAANTDYFQIKSLDRNTWGQGTQVTVSS | 0.000757 | 0.435
13 | FJ1427_P035MP02A08 (VHH, soluble VHH in periplasmic extract; also called clone nr) VHH: EVQLVESGGGLVQAGGSLRLSCTVSGDVFVRYTMAWFRQAPGKEREFVATVTDSGRTTEYVDSVKGRFTVSRDNAKNTVYLQMNNLKPEDTAVYYCAANTDYFRIRSLDANTWGQGTQVTVSS | 0.00198 | 1.79
14 | FJ1427_P035MP02C10 (VHH, soluble VHH in periplasmic extract; also called clone nr) VHH: QVQLVESGGGLVQAGGSLRLACALSGDVFVRYTMAWFRQAPGKEREFVASVTDSGRTTDYVASVQGRFTVSRDNNKNTVYLQMNSLKPEDTAVYYCAANTDYFQIRSLDRNTWGQGTQVTVSS | 0.000521 | 1.29
15 | FJ1427_P035MP02E08 (VHH, soluble VHH in periplasmic extract; also called clone nr) VHH: EVQLVESGGGLVQAGGSLRLSCVVSGDVFVRYTMAWFRQAPGKEREFVAVVTDSGRTTEYVDSVKGRFTVSRDNAKNTVYLQMNNLKPEDTAVYYCAANTDYFQIRSVDNNAWGQGTQVTVSS | 0.000846 | 0.45
16 | FJ1427_P035MP02F09 (VHH, soluble VHH in periplasmic extract; also called clone nr) VHH: EVQLVESGGGLVQAGGSLRLSCAASGDVFVRYTMAWFRQAPGKEREFVASVTDSGRTTDYVDSVKGRFTVSRDNAKNTVYLQMNNLKPEDTAVYYCAANTDYFQIRSLEFNTWGQGTQVTVSS | 0.00107 | 1.47
17 | FJ1427_P035MP02F10 (VHH, soluble VHH in periplasmic extract; also called clone nr) VHH: EVQLVESGGGLVQAGGSLRLSCVVSGDVFVRYTMAWFRQAPGKEREFVAVVTDSGRTTEYVDSVKGRFTVSRDNAKNTVYLQMNNLKPEDTAVYYCAANTDYFQIRSVDNNAWGQGTQVTVSS | 0.000788 | 0.595
18 | FJ1427_P035MP02G09 (VHH, soluble VHH in periplasmic extract; also called clone nr) VHH: QVQLVESGGGLVQAGGSLRLSCTVSGDVFVRYTMAWFRQAPGKEREFVALVTDSGRTTEYVDSVKGRFTVSRDNAKNTVYLQMNNLKPEDTAVYYCAANTDYFRIRSLDANTWGQGTQVTVSS | 0.0011 | 0.527
19 | FJ1427_P035MP02B08 (VHH, soluble VHH in periplasmic extract; also called 16-MP02B08; clone nr) VHH: EVQLVESGGGLVQAGGSLRLSCAASGRAIENYPVGWFRQAPGKEREFVAAITWISGSTLYADSVKGRFTISRDNAKNTVYLQMSSLKPEDTALYYCAAALKTITRGQNDYSYWGQGTQVTVSS | 0.000141 | 1.38
20 | FJ1427 P035MP02B07 (VHH, soluble VHH in periplasmic extract; also called clone nr) VHH: EVQLVESGGGLVEAGGSLRLSCAASGRAFNNFPMGWFRQAPGKEREFVAAITWISGSTLYADSVKGRFTISRDKSKNTVYLQMSGLKPEDTALYYCAAALKTITRGQHDYTYWGQGTQVTVSS | 0.000336 | 0.38
21 | FJ1427 P035MP02H09 (VHH, soluble VHH in periplasmic extract; also called clone nr) VHH: QLQLVESGGGLVQPGGSLRLSCAAAGRAIENYPVGWFRRAPGKEREFVAAITWISGSTLYADSVKGRFTISRDNAKNTVYLQMSSLKPEDTALYYCAAALKTITRGQNDYSYWGQGTQVTVSS | 0.000141 | 1.51
22 | FJ1427_P035MP02B10 (VHH, soluble VHH in periplasmic extract; also called clone nr; 170) VHH: QVQLVESGGGLVEAGGSLRLSCAASGRAFNNFPMGWFRQAPGKEREFVAAITWISGSTLYADSVKGRFTISRDKSKNTVYLQMSGLKPEDTALYYCAAALKTITRGQHDYTYWGQGTQVTVSS | 0.000284 | 0.476
23 | FJ1427_P035MP02E10 (VHH, soluble VHH in periplasmic extract; also called clone nr) VHH: QVQLVESGGGLVQAGGSLRLSCAAAGRAIENYPVGWFRRAPGKEREFVAAITWISGSTLYADSVKGRFTISRDNAKNTVYLQMSSLKPEDTALYYCAAALKTITRGQNDYSYWGQGTQVTVSS | 0.000615 | 1.39
24 | FJ1427 P035MP03A12 (VHH, soluble VHH in periplasmic extract; also called 21-MP03A12; clone nr) VHH: EVQLVESGGGLVQAGGSLRLSCAASGRTFSINAMGWFRQAPGKEREFVAAISRSGGSTVYVDGVKGRFTISRDNAKNTVYLQMNSLEPEDTAVYYCAATMAVGWTTRWRTADFDSWGQGTQVTVSS | 0.00628 | 0.146
25 | FJ1427_P035MP02C07 (VHH, soluble VHH in periplasmic extract; also called clone nr) VHH: QVQLVESGGGLVQAGGSLRLSCAASGRTFSINTMGWFRQAPGKEREFVAAISRSGDSTVYVDSVKGRFTISRDNAKNTVYLQMNTLKPEDTAVYYCATTVAVGWTTRWSTIDFDSWGQGTQVTVSS | 0.00231 | 0.731
26 | FJ1427_P035MP02B09 (VHH, soluble VHH in periplasmic extract; also called clone nr) VHH: EVQLVESGGGLVQAGGSLRLSCAASGRTFSTTEMGWFRQAPGKEREFVAAITWTGRGTMYAESVEGRFTISRENAKNMVYLQMNSLKPEDTAIYYCAAARRGRAAVRSEGGYDFWGQGTQVTVSS | 0.00022 | 0.811
27 | FJ1427_P035MP02A11 (VHH, soluble VHH in periplasmic extract; also called clone nr) VHH: EVQLVESGGGLVQAGGSLRLSCAASGRTFSTTEMGWFRQAPGKEREFVAAITWTGRGTMYAESVEGRFTISRENAKNMVYLQMNSLKPEDTAIYYCAAARRGRAAVRSEGGYDFWGQGTQATVSS | 0.000293 | 0.891
28 | FJ1427_P035MP02D07 (VHH, soluble VHH in periplasmic extract; also called clone nr) VHH: EVQLVESGGGLVQAGGSLRLSCAASGRSLSTTEMGWFRQAPGKEREFVAAITWSGRGTMYAESVEGRFAVSRENAKNTVYLQMNSLKPEDTAIYYCAAARRGRAAVRSEGGYDFWGQGTQVTVSS | 0.000982 | 0.747
